Experiment [1] has as its target MHC class II molecules on MHC class II-expressing Raji cells (human). Kind of experiment: transfer cell ELISA, Raji cells; 62.5 ng/ml; plate row D.
Experiment [2] has the same target. Kind of experiment: transfer cell ELISA, Raji cells; 7.813 ng/ml; plate row D. (In general: An ELISA detects its analyte on a solid surface through an enzyme-linked reagent.)
For experiment [3] the target is unchanged. Kind of experiment: direct ELISA, plate-immobilised Raji cells; 10% FBS, 2,500 cells; 125 ng/ml.
For experiment [4] the target is unchanged. Kind of experiment: direct ELISA, plate-immobilised Raji cells; 5% BSA, 10,000 cells; 500 ng/ml.
Experiment [5] shares this target. Kind of experiment: direct ELISA, plate-immobilised Raji cells; 5% BSA, 5,000 cells; 1000 ng/ml.
The target is the same in experiment [6]. Kind of experiment: direct ELISA, plate-immobilised Raji cells; 5% BSA, 5,000 cells; 62.5 ng/ml.
Experiment [7] shares this target. Kind of experiment: direct ELISA, plate-immobilised Raji cells; 10% FBS, 2,500 cells; 1000 ng/ml.
The target is the same in experiment [8]. Briefly: direct ELISA, plate-immobilised Raji cells; 10% FBS, 5,000 cells; 1000 ng/ml.
The target is the same in experiment [9]. Kind of experiment: direct ELISA, plate-immobilised Raji cells; 5% BSA, 2,500 cells; 31.25 ng/ml.
Experiment [10] shares this target. Kind of experiment: direct ELISA, plate-immobilised Raji cells; 10% FBS, 10,000 cells; 1000 ng/ml.
Experiment [11] shares this target. Briefly: direct ELISA, plate-immobilised Raji cells; 10% FBS, 10,000 cells; 31.25 ng/ml.
Experiment [12] has the same target. Briefly: direct ELISA, plate-immobilised Raji cells; 5% BSA, 10,000 cells; 15.625 ng/ml.
For experiment [13] the target is unchanged. Briefly: transfer cell ELISA, Raji cells; 1.953 ng/ml.
For experiment [14] the target is unchanged. Kind of experiment: transfer cell ELISA, Raji cells; 15.63 ng/ml.
Experiment [15] has the same target. Briefly: transfer cell ELISA, Raji cells; 7.813 ng/ml.
For experiment [16] the target is unchanged. Briefly: BLI; immobilised sample, Raji cells in solution; dark control of FIG. 23. In general terms: BLI is a label-free optical method that tracks binding on a fibre tip over time.
Experiment [17] shares this target. Briefly: BLI; immobilised sample, Raji cells in solution; pH 7.0 control of FIG. 21.
The target is the same in experiment [18]. Briefly: direct ELISA, plate-immobilised Raji cells; 3% gelatin, 2,500 cells; 250 ng/ml.
For experiment [19] the target is unchanged. Kind of experiment: direct ELISA, plate-immobilised Raji cells; 3% gelatin, 5,000 cells; 500 ng/ml.
For experiment [20] the target is unchanged. Kind of experiment: direct ELISA, plate-immobilised Raji cells; 0.5% Casein, 2,500 cells; 125 ng/ml.
Experiment [21] has the same target. Briefly: direct ELISA, plate-immobilised Raji cells; 0.5% Casein, 2,500 cells; 500 ng/ml.
The target is the same in experiment [22]. Kind of experiment: direct ELISA, plate-immobilised Raji cells; 0.5% Casein, 5,000 cells; 250 ng/ml.
The target is the same in experiment [23]. Briefly: direct ELISA, plate-immobilised Raji cells; 0.5% Casein, 5,000 cells; 500 ng/ml.
For experiment [24] the target is unchanged. Briefly: direct ELISA, plate-immobilised Raji cells; 3% gelatin, 10,000 cells; 250 ng/ml.
For experiment [25] the target is unchanged. Briefly: direct ELISA, plate-immobilised Raji cells; 3% gelatin, 10,000 cells; 500 ng/ml.
Experiment [26] shares this target. Briefly: direct ELISA, plate-immobilised Raji cells; 0.5% Casein, 10,000 cells; 125 ng/ml.
Experiment [27] shares this target. Kind of experiment: direct ELISA, plate-immobilised Raji cells; 3% gelatin, 5,000 cells; 31.25 ng/ml.
The target is the same in experiment [28]. Briefly: direct ELISA, plate-immobilised Raji cells; 3% gelatin, 10,000 cells; 31.25 ng/ml.
Experiment [29] has the same target. Kind of experiment: direct ELISA, plate-immobilised Raji cells; 3% gelatin, 5,000 cells; 15.625 ng/ml.
Experiment [30] shares this target. Briefly: direct ELISA, plate-immobilised Raji cells; 0.5% Casein, 10,000 cells; 15.625 ng/ml.
Experiment [31] has the same target. Kind of experiment: BLI; immobilised sample, Raji cells in solution; control of FIG. 19 (37° C., 1 day, no H2O2).
The target is the same in experiment [32]. Briefly: BLI; IMP321 sample at 100% binding potency, Raji cells in solution; relative to reference standard.
The target is the same in experiment [33]. Briefly: BLI; IMP321 sample diluted from reference standard to 50% binding potency, Raji cells in solution; relative to reference standard.

Experimental findings from patent US20190361034A1 are described below.

“IMP321 treated with Peptide-N-Glycosidase F (PNGase F) (Fc fusion)”: the OD (ELISA signal) in experiment [1] came to 0.076 OD; in experiment [2], 0.02 OD; in [3] it was 1.12 OD; in experiment [4], 1.3 OD; in [5], 1.81 OD; in experiment [6], 0.303 OD. Besides, the OD (ELISA signal) was 2.39 OD in [7]; 2.25 OD in experiment [8]; 0.304 OD in experiment [9]; 1.34 OD in [10]; 0.279 OD in experiment [11]; 0.366 OD in [12].

On to “IMP321, recombinant soluble human LAG-3Ig fusion protein (Fc fusion)”, for which the OD (ELISA signal) worked out at 0.026 OD in [13]; 0.098 OD in [14]; 0.053 OD in experiment [15]; 1.95 OD in experiment [18]; 1.88 OD in experiment [19]; 0.163 OD in experiment [20]. Also, the OD (ELISA signal) in [21] was determined as 0.18 OD; in experiment [22] it was 0.255 OD; in [23], 0.206 OD; in [24], 1.39 OD; in [25], 1.55 OD; in experiment [26], 0.176 OD. Moreover, the OD (ELISA signal) amounted to 0.359 OD in experiment [27], 0.389 OD in experiment [28], 0.316 OD in [29] and 0.185 OD in experiment [30]. Further, the Bioactivity (binding) in [16] came to 100%; in experiment [17] it was 95%; in [31], 85%. Further, the values for the Potency determined by BLI assay in experiment [32] and in [33] were 98% and 55%, respectively.
